Where a chain is given by its changes, count along the chain named. In names and notes the source's numbering stands.
B1: fructosyl amino acid oxidase derived from Aspergillus oryzae RIB40 (protein)
chain: MTVTKSSSILIIGAGTWGASTALHLGRRGYTNVTVLDPYTVPSAISAGNDVNKIISSGQYSNKKDEIEVNEILAEEAFKGWTTDPLFKPYYHDTGVVMSACSSAGLDRLGIRVRPEEEPDVSEVTKPEHFRQLAPAVLKGNFPGWRGYHIRSNAGWAHARNALVAAIREAEKLGVKFVTGTQGRVITLIFENNDVKGAVTADGKIWRAEQTVLCAGANAAQFLDFKDQLRPTAWTLAHIRLKPEERALYKNLPVIFNIEKGFFFEPDEERGEIKICDEHPGYTNMVKSADGHLTSLPFEKTQIPKESEARVRALLSETMPQLADRPFSFARVCWCADTANREFIIDRHPEHPSLVLGCGASGRGFKYLPSIGNLIVDAIEDKVPEKVHKLTRWSPDIAVDRKWRDTLGRFGGPNRVMDFHDVKEWTNVQNKDTAKL
B2: fructosyl peptide oxidase derived from Eupenicillium terrenum (protein)
chain: MAHSRASTKVVVVGGGGTIGSSTALHLIRSGYTPSNITVLDVYKTPSLQSAGHDLNKIMGIRLRNGPDLQLSLESLDMWQNDELFKPFFHQVGMIDCSSSKEGIENLRRKYQTLLDAGIGLEKTNVWLESEDEILAKAPNFTREQVKGWKGLFCTDGGWLAAAKAINAIGIFLQDKGVKFGFGDAGTFQQPLFAADGKTCIGLETTDGTKYFADKVVLAAGAWSPTLVDLEDQCVSKAWVFAHIQLTPKEADAYKNVPVVYDGEYGFFFEPDEYGVIKVCDEFPGFSRFKLHQPYGAASPKMISVPRSHAKHPTDTYPDASEVTIRKAIARFLPEFKDKELFNRTMCWCTDTADANLLICEHPKWKNFILATGDSGHSFKLLPNIGKYVVELLEGSLSQEMAGAWRWRPGGDALRSRRGAPAKDLAEMPGWKHDAHL
B3: EFP-T5-R62D (protein)
chain: B2 chain with R62D
B4: fructosyl peptide oxidase derived from Phaeosphaeria nodorum (protein)
chain: MAPSRANTSVIVVGGGGTIGSSTALHLVRSGYTPSNVTVLDAYPIPSSQSAGNDLNKIMGVSLRNPVDLQLALEARQMWNEDELFKKFFHNTGRLDCAHGEKDIADLKSGYQALVDAGLDATNEWLDSEDEILKRMPLLSRDQIKGWKAIFSKDGGWLAAAKAINAVGEYLRDQGVRFGFYGAGSFKAPLLAEGVCIGVETVDGTRYYADKVVLAAGAWSPTLVELHEQCVSKAWVYGHIQLTPEEAARYKNSPVVYNGDVGFFFEPNEHGVIKVCDEFPGFTRFKMHQPFGAKAPKRISVPRSHAKHPTDTIPDASDVSIRRAIATFMPQFKNKKMFNQAMCWCTDTADAALLICEHPEWKNFVLATGDSGHSFKLLPNIGKHVVELLEGTLADDLAHAWRWRPGSGDALKSRRSAPAKDLADMPGWNHDKPRANL
B5: PnFX-62D/63H/106K/110L/113K/351S (protein)
chain: B4 chain with S62D, L63H, D106K, G110L, A113K, A351S
B6: PnFX-62D/106K/110L/113K (protein)
chain: B4 chain with S62D, D106K, G110L, A113K
B7: CFP-T7-H28 (protein)
chain: MTSNRADTRVIVVGGGGTIGSSTALHLVRSGYAPANITVLDTFEIPSAQSAGHDLNKIMGIDHRNKVDLQMSLEARQMWKEDELFQPFFHNTGRMDCEHTPKGIEKLKKLYQKLHDAGAGLEKTHAWLDNEDEILSKMPLLQRDQIQGWKAIWSQDGGWLAAAKAINAIGQFLKERGVKFGFGGAGSFKQPLFDDEGTTCIGVETADGTKYYADKVVLAAGAWSPTLVDLEDQCCSKAWVYAHIQLTPEEAAEYKGVPVVYNGEFGFFFEPDEFGVIKVCDEFPGFSRFKEHQPYGAPSPKRISVPRSHAKHPTDTYPDASEVSIKKAIATFLPRFQDKELFNRALCWCTDTADAALLMCEHPKWKNFILATGDSGHSFKILPNVGKYVVELIEGRLPEEMAYQWRWRPGGDALKSRRAAPPKDLADMPGWKHDPKL
B8: CFP-T7-H36 (protein)
chain: B7 chain with D68N, A355S
B9: CFP-T7-H37 (protein)
chain: B7 chain with D68N, A355S, A356T
B10: CFP-T7-H29 (protein)
chain: B7 chain with K102E, A419K
B11: fructosyl amino acid oxidase derived from Aspergillus nidulans resulting from substitution of serine at position 59 with glycine (protein)
chain: MTPRANTKIIVVGGGGTMGSSTALHLLRAGYTPSNITVLDTCPIPSAQSAGYDLNKIMGIRLRNKPDLQLSLEALDMWKNDPLFKPFFHNVGMIDVSSTEEGIEGLRKKYQSLLDAGIGLEKTNFMLESEDEILAKAPHFTQEQIKGWKGLFCGDGGWLAAAKAINAIGQFLKEQGVKFGFGGAGTFKKPLFADAHEKTCIGVETVDGTKYYADKVVLAAGAWSSTLVDLEEQCVSKAWVFAHIQLTPAEAAAYKNTPVIYDGDYGFFFEPNENGIIKVCDEFPGFTHFKMHQPYGSPAPKPISVPRSHAKHPTDTYPHASEVTIKKAINRFLPRFNDKELFNRAMCWCTDTADANLLVCEHPRWKGFYLATGDSGHSFKLLPNIGKHVVELLEERLESVFKDAWRWRPGSGDALKSRRAAPAKDLADMPGWRNEAKM
B12: AnFX-61D/62H/101K/105K/109L/112K/355S (protein)
chain: B11 chain with R61D, L62H, E101K, G105K, K109L, S112K, A355S
B13: AnFX-61D/105K/109L (protein)
chain: B11 chain with R61D, G105K, K109L
B14: ketoamine oxidase derived from Neocosmospora vasinfecta (protein)
chain: MTTPRKETTVLIIGGGGTIGSSTALHLLRAGYTPSNITVLDTYPIPSAQSAGNDLNKIMGIRLRNKVDLQLSLEARDMWRNDALFRPFFHNTGRLDCESSAEGVEGLRREYQKLVEAGVGLEETHEWLDSEEAILEKAPLLQREEIEGWKAIWSEEGGWLAAAKAINAIGEELQRQGVRFGFGGAGSFKRPLFADDGTTCIGVETVDGTQYHADKVVLAAGAWSPALVDLEEQCCSKAWVYAHMQLTPEEAAVYKGCPVVYHGDVGFFFEPNENGVIKVCDEFPGFTRFKQHQPYGAPAPKPVSVPRSHAKHPTDTYPDASEESIKRAVSTFLPRFKDKPLFNRALCWCTDTADSALLICEHPRWKNFILATGDSGHSFKLLPIIGKHVVELVEGRLADDLAEAWRWRPGQGDARKSIRAAPAKDLADMPGWKHDQDSESR
B15: NvFX-62D/106K/110L (protein)
chain: B14 chain with R62D, G106K, E110L
B16: CFP-T7-H3 (protein)
chain: B7 chain with D62A, H63L, K102E, K106D, L110F, K113A
B17: amadoriase exhibiting 95% sequence identity with ketoamine oxidase derived from Curvularia clavata (protein)
chain: MAPSRANTSVIVVGGGGTIGSSTALHLVRSGYTPSNITVLDAYPIPSSQSAGNDLNKIMGIRLRNKVDLQLSLEARQMWREDDLFKEYFHNTGRLDCAHGEEGLADLRQAYQALLDANAGLEETTEWLDSEDEILKKMPLLSRDQIKGWKAVYSQDGGWLAAAKAINAIGEYLRAQGVKFGFGGAGSFKQPLLAEGVCIGVETVDGTRYYADKVVLAAGAWSPTLVELHEQCVSKAWVYGHIQLTPEEAAEYKNSPVVYNGDVGFFFEPNEHGVIKVCDEFPGFTRFKMHQPFGAKAPKRISVPRSHAKHPTDTIPDASEKSIRKAIATFLPKFTEKELFNRHLCWCTDTADAALLICEHPEWKNFVLATGDSGHSFKLLPNIGKHVVELLEGTLADDLAHAWRWRPGSGDALKSRRSAPAKDLADMPGWKHDDVVKSKL
B18: Cc95FX-62D/63H/106K/110L/113K/353S (protein)
chain: B17 chain with R62D, L63H, D106K, A110L, A113K, A353S

Biological target: T1, α-fructosyl-valyl-histidyl-leucyl-threonyl-proryl-glutamic acid
T1 chain: VHLTPE
Details: not given

Row | Protein | Specific activity (U/mg), 1 mM αF6P | specific activity on αF6P, fold over PnFX before mutation | αF6P oxidation activity ratio (relative value (CFP-T7-H26 = 100)) | αF6P oxidation activity ratio (relative value (CFP-T7-H28 = 100))
1 | B1 | 0.0022 U/mg |  |  | 
2 | B2 | 0 U/mg |  |  | 
3 | B3 | 0.0043 U/mg |  |  | 
4 | B4 | 0.0091 U/mg |  |  | 
5 | B5 | 0.667 U/mg |  |  | 
6 | B6 | 0.125 U/mg | specific activity on αF6P was elevated by 13.7 fold |  | 
7 | B7 |  |  | 117 | 100
8 | B8 | 4.65 U/mg |  |  | 
9 | B9 | 7.19 U/mg |  |  | 
10 | B10 |  |  | 102 | 
11 | B11 | 0 U/mg |  |  | 
12 | B12 | 0.283 U/mg |  |  | 
13 | B13 | 0.106 U/mg |  |  | 
14 | B14 | 0 U/mg |  |  | 
15 | B15 | 0.003 U/mg |  |  | 

Same assay, conditions: scale: relative value

Row | Protein | αF6P oxidation activity
16 | B7 | 134
17 | B16 | 0.0298
18 | B10 | 111
19 | B17 | 0
20 | B18 | 237

Source: patent publication US20160251695
